From patent US20240352117A1 (QYUNS THERAPEUTICS, published 2024) come the findings set out here.

For assay [1], the target named is T1, Human thymic stromal lymphopoietin (TSLP) (human, UniProt Q969D9 29-159).
T1 construct: also called human TSLP; hTSLP
Nature of the assay: SPR, Biacore T200, 25 C, antibody captured on Protein A chip, human TSLP as analyte, 1:1 model, mean of three tests. As for the experimental part: Biacore T200 was used to detect the affinity of QX008N (HZD8G2-57) binding to human TSLP. All processes were performed at 25° C. A commercial Protein A chip was used to immobilize an appropriate amount of antibody through the capture method so that Rmax was around 50RU and the capture flow rate was 10 μl/min. The antigen was diluted by gradient, the flow rate of the instrument was switch to 30 μl/min, and the antigen flowed through the reference channel and the fixed antibody channel in order from low to high concentration, with the antigen flowing through the buffer as a negative control. After each binding and dissociation was completed, the chip was regenerated with glycine at pH 1.5. The 1:1 binding model in Kinetics option was selected for fitting using the analysis software that comes with the instrument, and the binding rate constant kₐ, the dissociation rate constant kd and the equilibrium dissociation constant KD value of the antibody were calculated.
The detection method for known antibodies was the same as that for QX008N.
Background: SPR reads the build-up and loss of mass on a sensor chip optically.

In a further assay the target is natural TSLP. Nature of the assay: cell-based or functional assay.
Assay [2] concerns the target T1, Human thymic stromal lymphopoietin …. Nature of the assay: cell-based or functional assay.
Another assay addresses Cynomolgus monkey TSLP (cynomolgus monkey, UniProt A0A7N9CAT7 29-159). Description: cell-based or functional assay.

Cynomolgus monkey TSLP, sequence (A0A7N9CAT7 entry or part of it): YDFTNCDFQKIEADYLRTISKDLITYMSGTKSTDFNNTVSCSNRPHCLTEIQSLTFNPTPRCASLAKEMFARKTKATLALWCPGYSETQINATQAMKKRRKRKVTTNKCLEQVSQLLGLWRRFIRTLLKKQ

B1: QX008N (HZD8G2-57) (antibody, human IgG1, kappa, V domains shown)
VH: EVQLVESGGGLVQPGGSLRLSCAASGFSLSSYYMSWVRQAPGKGLEWVGFISYGGSAYHATWAQGRFTISKDNSKNTLYLQMNSLRAEDTAVYYCAREFRSMTYGAEWGIWGQGTLVTVSS
VL: AYQMTQSPSSVSASVGDRVTITCQASESIYDTLAWYQQKPGKAPKLLIYSASSLASGVPSRFSGSGSGTDFTLTISSLQPEDFATYYCQQGYTMPDVDKNPFGGGTKVEIKR
notes: Humanized rabbit antibody from clone 8G2; Expressed in ExpiCHO-S cells and purified with Protein A; also called humanized 8G2
As for B1, in assay [1], the affinity, expressed as Kd, was 0.0175 nM; the off-rate constant (koff) worked out at 2.99e-05 s⁻¹; the kon is 1.74e+06 M⁻¹ s⁻¹. Also, the “IC50 of inhibiting STAT5 phosphorylation in SW756-STAT5-Luciferase reporter gene cells induced by natural TSLP” value with natural TSLP came out at 0.462 ng/mL. For the same molecule, in assay [2], the “IC50 of inhibiting STAT5 phosphorylation in SW756-STAT5-Luciferase reporter gene cells induced by human TSLP” value turned out to be 0.837 ng/mL, the “IC50 of inhibiting the release of TARC (CCL17) from PBMCs induced by human TSLP” value is 77.1 ng/mL and the “IC50 of inhibiting the release of TARC (CCL17) from human whole blood induced by human TSLP” value is 0.839 ng/mL. In addition, in the assay with Cynomolgus monkey TSLP, the “IC50 of inhibiting STAT5 phosphorylation in SW756-STAT5-Luciferase reporter gene cells induced by Cynomolgus monkey TSLP” value worked out at 0.889 ng/mL.

B2: Tezepelumab (antibody, V domains shown)
VH: QMQLVESGGGVVQPGRSLRLSCAASGFTFRTYGMHWVRQAPGKGLEWVAVIWYDGSNKHYADSVKGRFTITRDNSKNTLNLQMNSLRAEDTAVYYCARAPQWELVHEAFDIWGQGTMVTVSS
VL: SYVLTQPPSVSVAPGQTARITCGGNNLGSKSVHWYQQKPGQAPVLVVYDDSDRPSWIPERFSGSNSGNTATLTISRGEAGDEADYYCQVWDSSSDHVVFGGGTKLTVLG
With B2, the “IC50 of inhibiting STAT5 phosphorylation in SW756-STAT5-Luciferase reporter gene cells induced by Cynomolgus monkey TSLP” value with Cynomolgus monkey TSLP came out at 1.88 ng/mL.

Usually Kd stands for the concentration at which binding is half-saturated. The term koff denotes the first-order rate constant of dissociation. By kon is commonly meant a measure of how fast the partners come together.
